Results reported in patent US10435456B2, “Compositions and methods for increasing the expression and signalling of proteins on cell surfaces” (THE JOHNS HOPKINS UNIVERSITY, priority 2014, dated 2019).
“Also recorded” adds a separate entry of the source.

T1: mOREG (Mus musculus, UniProt Q920P2)
T1 construct: The mOR-EG full-length construct, containing N-terminal Flag/Rho tags, was a kind gift from Kazushige Touhara; only in the L-EG and L-R-EG constructs) (N, cleaved yes); expressed in transfected cells; host or cells: HEK293T
T1 sequence (Q920P2 1-313): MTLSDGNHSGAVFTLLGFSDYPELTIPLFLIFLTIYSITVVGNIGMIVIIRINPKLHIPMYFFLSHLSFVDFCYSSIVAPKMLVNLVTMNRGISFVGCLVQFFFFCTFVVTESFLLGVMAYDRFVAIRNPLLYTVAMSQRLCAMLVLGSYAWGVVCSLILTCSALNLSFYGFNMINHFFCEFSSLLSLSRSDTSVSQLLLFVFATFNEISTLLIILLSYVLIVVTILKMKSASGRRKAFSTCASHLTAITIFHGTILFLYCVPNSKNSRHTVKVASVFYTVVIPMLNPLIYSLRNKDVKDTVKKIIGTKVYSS

T2: Olfr691 (Mus musculus, UniProt Q8VGW5)
T2 sequence (Q8VGW5 1-322): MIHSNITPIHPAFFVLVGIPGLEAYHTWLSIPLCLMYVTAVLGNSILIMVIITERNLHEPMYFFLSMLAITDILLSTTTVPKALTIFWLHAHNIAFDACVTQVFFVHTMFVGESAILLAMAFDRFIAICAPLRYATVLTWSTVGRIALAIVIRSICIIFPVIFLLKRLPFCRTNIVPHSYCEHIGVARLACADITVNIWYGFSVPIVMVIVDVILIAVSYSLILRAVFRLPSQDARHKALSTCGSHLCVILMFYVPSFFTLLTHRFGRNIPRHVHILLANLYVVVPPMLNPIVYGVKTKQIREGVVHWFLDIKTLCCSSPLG

B1: hOR52B2: human homologue of Olfr691, Flag-tagged construct (protein, UniProt Q96RD2 1-323, looked up)
Olfactory receptor 52B2: MSHTNVTIFHPAVFVLPGIPGLEAYHIWLSIPLCLIYITAVLGNSILIVVIVMERNLHVPMYFFLSMLAVMDILLSTTTVPKALAIFWLQAHNIAFDACVTQGFFVHMMFVGESAILLAMAFDRFVAICAPLRYTTVLTWPVVGRIALAVITRSFCIIFPVIFLLKRLPFCLTNIVPHSYCEHIGVARLACADITVNIWYGFSVPIVMVILDVILIAVSYSLILRAVFRLPSQDARHKALSTCGSHLCVILMFYVPSFFTLLTHHFGRNIPQHVHILLANLYVAVPPMLNPIVYGVKTKQIREGVAHRFFDIKTWCCTSPLGS
modifications: Flag tag
notes: human homologue of Olfr691, Flag-tagged construct
B2: hOR51E2: human olfactory receptor, Flag-tagged construct (protein, UniProt Q9H255 1-320, looked up)
Olfactory receptor 51E2: MSSCNFTHATFVLIGIPGLEKAHFWVGFPLLSMYVVAMFGNCIVVFIVRTERSLHAPMYLFLCMLAAIDLALSTSTMPKILALFWFDSREISFEACLTQMFFIHALSAIESTILLAMAFDRYVAICHPLRHAAVLNNTVTAQIGIVAVVRGSLFFFPLPLLIKRLAFCHSNVLSHSYCVHQDVMKLAYADTLPNVVYGLTAILLVMGVDVMFISLSYFLIIRTVLQLPSKSERAKAFGTCVSHIGVVLAFYVPLIGLSVVHRFGNSLHPIVRVVMGDIYLLLPPVINPIIYGAKTKQIRTRVLAMFKISCDKDLQAVGGK
modifications: Flag tag
notes: human olfactory receptor, Flag-tagged construct

How the values were obtained:
mOREG = biological target: T1, mOREG; test: CRE luciferase reporter assay (Firefly:Renilla), mOREG constructs; type: cell-based, murine; conditions: Rho-mOREG, Lucy-mOREG, no RTP1S, 100-300 μM eugenol
Protocol: The luciferase assay was performed as previously described. Briefly, ORs were transfected into HEK293T cells along with constructs encoding for CREB-dependent luciferase (Firefly) and a constitutively expressed luciferase (Renilla). OR activation leads to a rise in cAMP which drives an increase in Firefly luciferase expression. Firefly activity is normalized to the activity of the Renilla luciferase to control for variation in cell number and transfection efficiency. Data were collected using a FLUOstar Omega automated platereader (BMG LabTech, Cary, N.C.). For some experiments, RTP1S was also transfected.
As mOREG is one of the ORs that reach the cell surface under every condition tested, we expressed the OR with and without the Lucy and Rho tags and assessed its response to eugenol.

Olfr691 = biological target: T2, Olfr691; test: CRE luciferase reporter assay (Firefly:Renilla), Olfr691 constructs; conditions: 0.1-5 mM isovaleric acid
murine Gpr160 = test: Surface expression of murine Gpr160; type: cell-based; conditions: HEK293T cells
human GPR160 = test: Surface expression of human GPR160; type: cell-based; conditions: HEK293T cells
HEK293T cells = test: Surface immunocytochemistry of Flag-tagged olfactory receptor constructs; type: cell-based; set-up: key to OR surface expression (trafficking): −: No detectable OR surface expression; +: OR surface expression detected in the majority of fields of view (>90% of all fields of view); *: OR surface expression detected in a minority of fields of view (<50% of all fields of view); conditions: for OR surface expression (trafficking): HEK293T
Protocol: HEK293T cells were seeded onto 18-mm coverslips coated with poly-L-lysine and transfected with OR constructs with or without accessory proteins (Lipofectamine 2000, Invitrogen). Flag-tagged OR trafficking was assayed using surface immunocytochemistry, as previously described. Briefly, live, non-permeabilized cells at 4° C. were exposed to a rabbit polyclonal anti-Flag antibody in PBS with 0.1% BSA. Subsequently, cells were washed, fixed with 4% paraformaldehyde, permeabilized (0.3% Triton X-100) and then exposed to a mouse monoclonal (M2) anti-Flag antibody. As the external Flag epitope (surface Flag) epitope is ‘blocked’ after binding to the polyclonal Flag antibody, the monoclonal Flag antibody detects only the internal population of ORs. […] Fluorescent secondary antibodies reported the localization of the polyclonal and monoclonal Flag-tags. Cells were visualized for epifluorescence using a Zeiss Axiophot microscope (Thornwood, N.Y.). Images were taken with a CoolSnap Digita Camera (Photometrics, Tucson, Ariz.) and IP Labs software (Biovision, Exton, Pa.). For some experiments, a total of 0.8 μg of accessory plasmids (pcDNA3-RTP1S (modified from RTP1L, kind gift from S. Firestein, Columbia Univ.), pCMV Sport6-Ric8b (purchased from Open Biosystems), and pcDNA3.1-Gαolf (subcloned from a pGEMHE2 Gαolf construct, kind gift from S. Firestein, Columbia Univ.)) or 0.8 μg of an empty pcDNA4.1 vector (OR alone) were co-transfected along with 0.8 μg of the OR. In FIGS. 1 and 2, the immunofluorescent images shown in each row (OR, Rho-OR, Lucy-OR and Lucy-Rho-OR with and without accessory proteins) were transfected and processed simultaneously and image exposures remained constant for each OR. Images represent representative fields of view from at least 4 independent experiments. To assess OR surface expression, the entirety of each coverslip was systematically scanned and scored based on detectable surface immunofluorescence. A ‘+’ was scored for those ORs whose surface expression was detectable in >90% of all fields of view while ORs received an ‘*’ if surface expression was found in <50% of all fields of view. A complete lack of detectable surface expression was scored as a ‘−’. To quantitate cell surface expression using ImageJ (FIG. 14), the background was subtracted from the surface labeled Olfr691 images and the mean fluorescence intensity was measured. The mean intensity was normalized to the mean intensity of the corresponding binary nuclear image, to control for cell number.
ORs were cloned and co-expressed in HEK293T cells without Rho or Lucy tags (OR), with a Rho tag (Rho-OR), with the Lucy tag (Lucy-OR) or with both the Lucy and Rho tags (Lucy-Rho-OR) along with (or without) the chaperone proteins, RTP1S, Ric8b and Gαolf. The cells were then surface labeled with a Flag antibody to detect membrane-associated OR. Images were taken for each OR at equal exposure for all conditions. To assess OR surface expression, the entirety of each coverslip was systematically scanned and scored based on detectable surface immunofluorescence. A ‘+’ was scored for those ORs whose surface expression was detectable in >90% of all fields of view while ORs received an ‘*’ if surface expression was found in <50% of all fields of view. A complete lack of detectable surface expression was scored as a ‘−’.
Many ORs remain orphan receptors due to their inability to traffic in in vitro assays. To establish the trafficking ability of a varied group of ORs, we cloned 15 diverse ORs, the majority of which are orphan receptors which have not been previously reported to reach the cell surface. Live, non-permeabilized HEK 293T cells were surface labeled with a Flag antibody to detect membrane associated receptor and OR surface expression was scored based on detectable surface immunofluorescence. […]

[1] = column 1: OR (Flag tag only, no Rho or Lucy tag), chaperones none
[2] = column 2: OR (Flag tag only), with RTP1S, Ric8b, Gαolf
[3] = column 3: Rho-OR, chaperones none
[4] = column 4: Rho-OR, with RTP1S, Ric8b, Gαolf
[5] = column 5: Lucy-OR, chaperones none
[6] = column 6: Lucy-OR, with RTP1S, Ric8b, Gαolf
[7] = column 7: Lucy-Rho-OR, chaperones none
[8] = column 8: Lucy-Rho-OR, with RTP1S, Ric8b, Gαolf

| Molecule | OR surface expression (trafficking) (HEK293T cells; [1]) | OR surface expression (trafficking) (HEK293T cells; [2]) | OR surface expression (trafficking) (HEK293T cells; [3]) | OR surface expression (trafficking) (HEK293T cells; [4]) | OR surface expression (trafficking) (HEK293T cells; [5]) | OR surface expression (trafficking) (HEK293T cells; [6]) | OR surface expression (trafficking) (HEK293T cells; [7]) | OR surface expression (trafficking) (HEK293T cells; [8]) | other results |
| --- | --- | --- | --- | --- | --- | --- | --- | --- | --- |
| C=CCc1ccc(O)c(OC)c1 [eugenol] |  |  |  |  |  |  |  |  | OR activation (Firefly:Renilla ratio) (mOREG): dose-dependent activation; also recorded: significantly activated |
| CC(C)CC(=O)O [isovaleric acid] |  |  |  |  |  |  |  |  | OR activation (Firefly:Renilla ratio) (Olfr691; Lucy-Rho-Olfr691 with and without RTP1S): responded to isovaleric acid in a dose-dependent manner; OR activation (Firefly:Renilla ratio) (Olfr691; Rho-Olfr691 co-expressed with RTP1S): dose-dependent increase in the Firefly: Renilla ratio; OR activation (Firefly:Renilla ratio) (Olfr691; Rho-Olfr691 without RTP1S): not significantly activated at any concentration; also recorded: no concentrations of isovaleric acid activated R-691 |
| Lucy tag: 17-amino acid cleavable signal peptide from LRRC32, MRPQILLLLALLTLGLA (SEQ ID NO:3) (Amino acid sequence of Lucy tag) |  |  |  |  |  |  |  |  | surface expression of murine Gpr160 (murine Gpr160): promotes surface expression; surface expression of human GPR160 (human GPR160): promotes surface expression |
| B1 | − | − | − | − | + (OR surface expression detected in the majority of fields of view (>90% of all fields of view)) | + (OR surface expression detected in the majority of fields of view (>90% of all fields of view)) | + (OR surface expression detected in the majority of fields of view (>90% of all fields of view)) | + (OR surface expression detected in the majority of fields of view (>90% of all fields of view)) | surface trafficking, Rho-tagged vs Lucy-Rho-tagged OR, in words (HEK293T cells; no accessory proteins, 24 h transfection): traffic to the surface with but not without the Lucy tag |
| B2 | + (OR surface expression detected in the majority of fields of view (>90% of all fields of view)) | + (OR surface expression detected in the majority of fields of view (>90% of all fields of view)) | + (OR surface expression detected in the majority of fields of view (>90% of all fields of view)) | + (OR surface expression detected in the majority of fields of view (>90% of all fields of view)) | + (OR surface expression detected in the majority of fields of view (>90% of all fields of view)) | + (OR surface expression detected in the majority of fields of view (>90% of all fields of view)) | + (OR surface expression detected in the majority of fields of view (>90% of all fields of view)) | + (OR surface expression detected in the majority of fields of view (>90% of all fields of view)) |  |
